± gives the standard deviation of the averaged measurements.
Tests used:
MCF7 = experiment: percentage of EdU-negative (G0-arrested) nuclei per well, 72 h; higher = more G0 arrest; conditions: reference: sequence is the full UniProt precursor, the tested protein was the secreted form or ectodomain
hTERT-HMEC = experiment: as above; conditions: reference: sequence is the full UniProt precursor, the tested protein was the secreted form or ectodomain
[1] = protein concentration 0.0257143 µM
[2] = protein concentration 0.257143 µM
[3] = protein concentration 0.0225 µM
[4] = protein concentration 0.0114286 µM
[5] = protein concentration 0.114286 µM
[6] = protein concentration 0.00825 µM
[7] = protein concentration 0.0825 µM
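Note: secreted proteins added to cultured cells, EdU pulse at the end, nuclei found by Hoechst imaging, EdU status from nuclear versus surrounding ring intensity ratio, PBS as neutral control.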

With “MYLSICCCFLLWAPALTLKNLNYSVPEEQGAGTVIGNIGRDARLQPGLPPAERGGGGRSKSGSYRVLENSAPHLLDVDADSGLLYTKQRIDRESLCRHNAKCQLSLEVFANDKEICMIKVEIQDINDNAPSFSSDQIEMDISENAAPGTRFPLTSAHDPDAGENGLRTYLLTRDDHGLFGLDVKSRGDGTKFPELVIQKALDREQQNHHTLVLTALDGGEPPRSATVQINVKVIDSNDNSPVFEAPSYLVELPENAPLGTVVIDLNATDADEGPNGEVLYSFSSYVPDRVRELFSIDPKTGLIRVKGNLDYEENGMLEIDVQARDLGPNPIPAHCKVTVKLIDRNDNAPSIGFVSVRQGALSEAAPPGTVIALVRVTDRDSGKNGQLQCRVLGGGGTGGGGGLGGPGGSVPFKLEENYDNFYTVVTDRPLDRETQDEYNVTIVARDGGSPPLNSTKSFAIKILDENDNPPRFTKGLYVLQVHENNIPGEYLGSVLAQDPDLGQNGTVSYSILPSHIGDVSIYTYVSVNPTNGAIYALRSFNFEQTKAFEFKVLAKDSGAPAHLESNATVRVTVLDVNDNAPVIVLPTLQNDTAELQVPRNAGLGYLVSTVRALDSDFGESGRLTYEIVDGNDDHLFEIDPSSGEIRTLHPFWEDVTPVVELVVKVTDHGKPTLSAVAKLIIRSVSGSLPEGVPRVNGEQHHWDMSLPLIVTLSTISIILLAAMITIAVKCKRENKEIRTYNCRIAEYSHPQLGGGKGKKKKINKNDIMLVQSEVEERNAMNVMNVVSSPSLATSPMYFDYQTRLPLSSPRSEVMYLKPASNNLTVPQGHAGCHTSFTGQGTNASETPATRMSIIQTDNFPAEPNYMGSRQQFVQSSSTFKDPERASLRDSGHGDSDQADSDQDTNKGSCCDMSVREALKMKTTSTKSQPLEQEPEECVNCTDECRVLGHSDRCWMPQFPAANQAENADYRTNLFVPTVEANVETETYETVNPTGKKTFCTFGKDKREHTILIANVKPYLKAKRALSPLLQEVPSASSSPTKACIEPCTSTKGSLDGCEAKPGALAEASSQYLPTDSQYLSPSKQPRDPPFMASDQMARVFADVHSRASRDSSEMGAVLEQLDHPNRDLGRESVDAEEVVREIDKLLQDCRGNDPVAVRK” the “percentage of EdU-negative” value (MCF7; [1]) was 23.2 ± 3%, the “percentage of EdU-negative” value (MCF7; [2]) was 26.6 ± 0.28% and the “percentage of EdU-negative” value (hTERT-HMEC; [1]) was 4.62 ± 0.4%. For the same substance, the “percentage of EdU-negative” value (hTERT-HMEC; [2]) was 7.27 ± 0.33%.
“MTPILTVLICLGLSLGPRTHVQAGHLPKPTLWAEPGSVIIQGSPVTLRCQGSLQAEEYHLYRENKSASWVRRIQEPGKNGQFPIPSITWEHAGRYHCQYYSHNHSSEYSDPLELVVTGAYSKPTLSALPSPVVTSGGNVTLQCVSQVAFDGFILCKEGEDEHPQRLNSHSHARGWSWAIFSVGPVSPSRRWSYRCYAYDSNSPYVWSLPSDLLELLVPGVSKKPSLSVQPGPMVAPGESLTLQCVSDVGYDRFVLYKEGERDFLQRPGWQPQAGLSQANFTLGPVSPSHGGQYRCYSAHNLSSEWSAPSDPLDILITGQFYDRPSLSVQPVPTVAPGKNVTLLCQSRGQFHTFLLTKEGAGHPPLHLRSEHQAQQNQAEFRMGPVTSAHVGTYRCYSSLSSNPYLLSLPSDPLELVVSEAAETLSPSQNKTDSTTTSLGQHPQDYTVENLIRMGVAGLVLVVLGILLFEAQHSQRSLQDAAGR [Q8N149]” was tested, and the “percentage of EdU-negative” value (MCF7; [3]) was 23.9 ± 0.99%, the “percentage of EdU-negative” value (MCF7; protein concentration 0.225 µM) was 26.3 ± 3.1% and the “percentage of EdU-negative” value (hTERT-HMEC; [3]) was 5.36 ± 0.5%. The “percentage of EdU-negative” value (hTERT-HMEC; protein concentration 0.225 µM) was 4.88 ± 0.47%.
With “MKGFTATLFLWTLIFPSCSGGGGGKAWPTHVVCSDSGLEVLYQSCDPLQDFGFSVEKCSKQLKSNINIRFGIILREDIKELFLDLALMSQGSSVLNFSYPICEAALPKFSFCGRRKGEQIYYAGPVNNPEFTIPQGEYQVLLELYTEKRSTVACANATIMCS” the “percentage of EdU-negative” value (MCF7; [3]) was 28.5 ± 0.69%, the “percentage of EdU-negative” value (MCF7; protein concentration 0.225 µM) was 29.008 ± 0.011% and the “percentage of EdU-negative” value (hTERT-HMEC; [3]) was 4.8 ± 0.29%. The “percentage of EdU-negative” value (hTERT-HMEC; protein concentration 0.225 µM) was 6.1 ± 0.31%.
H7BXV5 was tested, and the “percentage of EdU-negative” value (MCF7; [4]) was 23 ± 0.76%, the “percentage of EdU-negative” value (MCF7; [5]) was 23.83 ± 0.21% and the “percentage of EdU-negative” value (hTERT-HMEC; [4]) was 4.71 ± 0.48%. The “percentage of EdU-negative” value (hTERT-HMEC; [5]) was 7.28 ± 0.91%.
For “MLVGQGAGPLGPAVVTAAVVLLLSGVGPAHGSEDIVVGCGGFVKSDVEINYSLIEIKLYTKHGTLKYQTDCAPNNGYFMIPLYDKGDFILKIEPPLGWSFEPTTVELHVDGVSDICTKGGDINFVFTGFSVNGKVLSKGQPLGPAGVQVSLRNTGTEAKIQSTVTQPGGKFAFFKVLPGDYEILATHPTWALKEASTTVRVTNSNANAASPLIVAGYNVSGSVRSDGEPMKGVKFLLFSSLVTKEDVLGCNVSPVPGFQPQDESLVYLCYTVSREDGSFSFYSLPSGGYTVIPFYRGERITFDVAPSRLDFTVEHDSLKIEPVFHVMGFSVTGRVLNGPEGDGVPEAVVTLNNQIKVKTKADGSFRLENITTGTYTIHAQKEHLYFETVTIKIAPNTPQLADIIATGFSVCGQISIIRFPDTVKQMNKYKVVLSSQDKDKSLVTVETDAHGSFCFKAKPGTYKVQVMVPEAETRAGLTLKPQTFPLTVTNRPMMDVAFVQFLASVSGKVSCLDTCGDLLVTLQSLSRQGEKRSLQLSGKVNAMTFTFDNVLPGKYKISIMHEDWCWKNKSLEVEVLEDDMSAVEFRQTGYMLRCSLSHAITLEFYQDGNGRENVGIYNLSKGVNRFCLSKPGVYKVTPRSCHRFEQAFYTYDTSSPSILTLTAIRHHVLGTITTDKMMDVTVTIKSSIDSEPALVLGPLKSVQELRREQQLAEIEARRQEREKNGNEEGEERMTKPPVQEMVDELQGPFSYDFSYWARSGEKITVTPSSKELLFYPPSMEAVVSGESCPGKLIEIHGKAGLFLEGQIHPELEGVEIVISEKGASSPLITVFTDDKGAYSVGPLHSDLEYTVTSQKEGYVLTAVEGTIGDFKAYALAGVSFEIKAEDDQPLPGVLLSLSGGLFRSNLLTQDNGILTFSNLSPGQYYFKPMMKEFRFEPSSQMIEVQEGQNLKITITGYRTAYSCYGTVSSLNGEPEQGVAMEAVGQNDCSIYGEDTVTDEEGKFRLRGLLPGCVYHVQLKAEGNDHIERALPHHRVIEVGNNDIDDVNIIVFRQINQFDLSGNVITSSEYLPTLWVKLYKSENLDNPIQTVSLGQSLFFHFPPLLRDGENYVVLLDSTLPRSQYDYILPQVSFTAVGYHKHITLIFNPTRKLPEQDIAQGSYIALPLTLLVLLAGYNHDKLIPLLLQLTSRLQGVRALGQAASDNSGPEDAKRQAKKQKTRRT”, the “percentage of EdU-negative” value (MCF7; [6]) was 22.7 ± 1.3%, the “percentage of EdU-negative” value (MCF7; [7]) was 26.29 ± 0.074% and the “percentage of EdU-negative” value (hTERT-HMEC; [6]) was 5.23 ± 0.14%. For the same substance, the “percentage of EdU-negative” value (hTERT-HMEC; [7]) was 7.14 ± 1.1%.
For “MSDLGAVISLLLWGRQLFALYSGNDVTDISDDRFPKPPEIANGYVEHLFRYQCKNYYRLRTEGDGVYTLNDKKQWINKAVGDKLPECEAVCGKPKNPANPVQRILGGHLDAKGSFPWQAKMVSHHNLTTGATLINEQWLLTTAKNLFLNHSENATAKDIAPTLTLYVGKKQLVEIEKVVLHPNYHQVDIGLIKLKQKVLVNERVMPICLPSKNYAEVGRVGYVSGWGQSDNFKLTDHLKYVMLPVADQYDCITHYEGSTCPKWKAPKSPVGVQPILNEHTFCVGMSKYQEDTCYGDAGSAFAVHDLEEDTWYAAGILSFDKSCAVAEYGVYVKVTSIQHWVQKTIAEN”, the “percentage of EdU-negative” value (MCF7; protein concentration 0.029 µM) was 26.82 ± 0.23%, the “percentage of EdU-negative” value (MCF7; protein concentration 0.29 µM) was 26.1 ± 1.1% and the “percentage of EdU-negative” value (hTERT-HMEC; protein concentration 0.029 µM) was 4.84 ± 0.049%. The “percentage of EdU-negative” value (hTERT-HMEC; protein concentration 0.29 µM) was 4.84 ± 0.17%.
